Measured values from the supplement of paper PMC10567573.

B1: HDAC6 (parent)
chain: QEGLLDRCVSFQARFAEKEELMLV

Variants of: B1
Assay: protein stability index of a GFP-peptide fusion (GPS, HEK-293T) (PSI 1-6); higher = more stable
Conditions: c terminus: a fixed tail appended
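Also: lentivirally expressed fusions sorted by FACS into six bins by GFP to DsRed ratio, PSI derived from sequencing read proportions per bin multiplied by bin number.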

Row | Variant | protein stability index
1 | QEGLLDRKVSFQARFAEKEELMLV | 2.45
2 | QEGLLDRIVSFQARFAEKEELMLV | 1.67
3 | QEGLLDRMVSFQARFAEKEELMLV | 1.98
4 | QEGLLDRFVSFQARFAEKEELMLV | 1.61
5 | QEGLLDRTVSFQARFAEKEELMLV | 2.27
6 | QEGLLDRPVSFQARFAEKEELMLV | 1.87
7 | QEGLLDRVVSFQARFAEKEELMLV | 2.17
8 | QEGLLDRGVSFQARFAEKEELMLV | 2.61
9 | QEGLLDRDVSFQARFAEKEELMLV | 1.77
10 | QEGLLDREVSFQARFAEKEELMLV | 2.04
11 | QEGLLDRWVSFQARFAEKEELMLV | 1.62
12 | QEGLLDRYVSFQARFAEKEELMLV | 4.19
13 | QEGLLDRNVSFQARFAEKEELMLV | 1.9
14 | QEGLLDRSVSFQARFAEKEELMLV | 2.44
15 | QEGLLDRRVSFQARFAEKEELMLV | 1.98
16 | QEGLLDRAVSFQARFAEKEELMLV | 1.97
17 | QEGLLDRHVSFQARFAEKEELMLV | 1.93
18 | QEGLLDRQVSFQARFAEKEELMLV | 2.12
19 | QEGLLDRLVSFQARFAEKEELMLV | 1.57
20 | QEGLLDSCVSFQARFAEKEELMLV | 3.14
21 | QEGLLDFCVSFQARFAEKEELMLV | 2.59
22 | QEGLLDICVSFQARFAEKEELMLV | 2.91
23 | QEGLLDVCVSFQARFAEKEELMLV | 1.71
24 | QEGLLDMCVSFQARFAEKEELMLV | 1.92

Row | Variant | protein stability index
25 | QEGLLDGCVSFQARFAEKEELMLV | 2.17
26 | QEGLLDKCVSFQARFAEKEELMLV | 1.43
27 | QEGLLDHCVSFQARFAEKEELMLV | 1.7
28 | QEGLLDACVSFQARFAEKEELMLV | 2.74
29 | QEGLLDWCVSFQARFAEKEELMLV | 1.83
30 | QEGLLDECVSFQARFAEKEELMLV | 1.93
31 | QEGLLDNCVSFQARFAEKEELMLV | 2.13
32 | QEGLLDLCVSFQARFAEKEELMLV | 2.69
33 | QEGLLDYCVSFQARFAEKEELMLV | 1.66
34 | QEGLLDCCVSFQARFAEKEELMLV | 2.32
35 | QEGLLDQCVSFQARFAEKEELMLV | 1.94
36 | QEGLLDDCVSFQARFAEKEELMLV | 1.69
37 | QEGLLDTCVSFQARFAEKEELMLV | 1.73
38 | QEGLLDPCVSFQARFAEKEELMLV | 2.56
39 | QEGLLDRCVSGQARFAEKEELMLV | 2.43
40 | QEGLLDRCVSAQARFAEKEELMLV | 2.35
41 | QEGLLDRCVSDQARFAEKEELMLV | 3.01
42 | QEGLLDRCVSEQARFAEKEELMLV | 3.09
43 | QEGLLDRCVSCQARFAEKEELMLV | 3.17
44 | QDGLLDRCVSFQARFAEKEELMLV | 1.83
45 | QNGLLDRCVSFQARFAEKEELMLV | 1.28
46 | QYGLLDRCVSFQARFAEKEELMLV | 1.8
47 | QVGLLDRCVSFQARFAEKEELMLV | 2.44
48 | QLGLLDRCVSFQARFAEKEELMLV | 1.69

Row | Variant | protein stability index
49 | QCGLLDRCVSFQARFAEKEELMLV | 2
50 | QQGLLDRCVSFQARFAEKEELMLV | 1.21
51 | QGGLLDRCVSFQARFAEKEELMLV | 2.52
52 | QPGLLDRCVSFQARFAEKEELMLV | 2.56
53 | QFGLLDRCVSFQARFAEKEELMLV | 1.77
54 | QMGLLDRCVSFQARFAEKEELMLV | 1.62
55 | QTGLLDRCVSFQARFAEKEELMLV | 2.14
56 | QIGLLDRCVSFQARFAEKEELMLV | 2.12
57 | QWGLLDRCVSFQARFAEKEELMLV | 1.57
58 | QSGLLDRCVSFQARFAEKEELMLV | 2.5
59 | QRGLLDRCVSFQARFAEKEELMLV | 1.95
60 | QHGLLDRCVSFQARFAEKEELMLV | 1.96
61 | QKGLLDRCVSFQARFAEKEELMLV | 1.94
62 | QAGLLDRCVSFQARFAEKEELMLV | 1.12
63 | QEGLLDRCHSFQARFAEKEELMLV | 1.94
64 | QEGLLDRCSSFQARFAEKEELMLV | 2.84
65 | QEGLLDRCKSFQARFAEKEELMLV | 2.34
66 | QEGLLDRCPSFQARFAEKEELMLV | 2.36
67 | QEGLLDRCESFQARFAEKEELMLV | 2.35
68 | QEGLLDRCLSFQARFAEKEELMLV | 1.74
69 | QEGLLDRCQSFQARFAEKEELMLV | 2.7
70 | QEGLLDRCGSFQARFAEKEELMLV | 1.9
71 | QEGLLDRCFSFQARFAEKEELMLV | 1.63
72 | QEGLLDRCYSFQARFAEKEELMLV | 2.29

Row | Variant | protein stability index
73 | QEGLLDRCNSFQARFAEKEELMLV | 2.58
74 | QEGLLDRCTSFQARFAEKEELMLV | 2.07
75 | QEGLLDRCMSFQARFAEKEELMLV | 2.57
76 | QEGLLDRCISFQARFAEKEELMLV | 2.44
77 | QEGLLDRCRSFQARFAEKEELMLV | 2
78 | QEGLLDRCDSFQARFAEKEELMLV | 2.29
79 | QEGLLDRCWSFQARFAEKEELMLV | 1.79
80 | QEGLLDRCASFQARFAEKEELMLV | 1.71
81 | QEGLLDRCCSFQARFAEKEELMLV | 2.18
82 | QEPLLDRCVSFQARFAEKEELMLV | 1.78
83 | QEALLDRCVSFQARFAEKEELMLV | 1.89
84 | QELLLDRCVSFQARFAEKEELMLV | 1.64
85 | QEELLDRCVSFQARFAEKEELMLV | 2.54
86 | QENLLDRCVSFQARFAEKEELMLV | 2.93
87 | QERLLDRCVSFQARFAEKEELMLV | 2.01
88 | QEFLLDRCVSFQARFAEKEELMLV | 1.06
89 | QEKLLDRCVSFQARFAEKEELMLV | 2.16
90 | QEVLLDRCVSFQARFAEKEELMLV | 1.4
91 | QETLLDRCVSFQARFAEKEELMLV | 1.97
92 | QEWLLDRCVSFQARFAEKEELMLV | 1.79
93 | QEHLLDRCVSFQARFAEKEELMLV | 2.12
94 | QEDLLDRCVSFQARFAEKEELMLV | 2.12
